Data taken from patent US20260242478A1 (published 2026).
Where no end group is shown, it is not given here.

Key:
[1] = biological target: T1, Anti-CD28 Fab (SEQ ID NOs: 696, 697); assay: phage binding ELISA; biotinylated anti-CD28 Fab on neutravidin plate, anti-M13 HRP detection
T1 construct: Biotinylated and captured on neutravidin coated plates in the phage ELISA
Description: (§1) Clonal phage were harvested as crude supematants and screened via standard ELISAs. […] Prior to the addition of clonal phage, wells were incubated with blocking buffer and CD28 antigen or blocking buffer alone. Without washing or aspirating, clonal phage supematants were then added to the wells and incubated for a short time. Wells were then washed followed by detection of bound phage using a horse radish conjugated anti-M13 antibody.

[2] = biological target: T1, Anti-CD28 Fab (SEQ ID NOs: 696, 697); assay: phage binding ELISA on captured anti-CD28 Fab; competitor CD28 antigen
Description: as §1

[3] = biological target: T2, Anti-PSMA Fab (SEQ ID NOs: 19, 20); assay: phage ELISA; clonal phage supernatant on biotinylated PSMA Fab captured on neutravidin plates, anti-M13 HRP detection
T2 construct: also called 006 PSMA Fab
Description: (§2) Clonal phage were harvested as crude supernatants and screened via standard ELISAs. […] Prior to the addition of clonal phage. wells were incubated with blocking buffer and PSMA antigen or blocking buffer alone. Without washing or aspirating, clonal phage supernatants were then added to the wells and incubated for a short time. Wells were then washed followed by detection of bound phage using a horse radish conjugated anti-M13 antibody.

[4] = biological target: T2, Anti-PSMA Fab (SEQ ID NOs: 19, 20); assay: phage ELISA; clonal phage on captured PSMA Fab pre-incubated with PSMA antigen as competitor, anti-M13 HRP detection
Description: as §2

anti-CD28 Fab = assay: competition ELISA, peptide titrated 0-100 uM against 1 nM anti-CD28 Fab, plate-bound CD28 as competitor
Chain of anti-CD28 Fab (VH, as listed by the source, chain 1 of 2): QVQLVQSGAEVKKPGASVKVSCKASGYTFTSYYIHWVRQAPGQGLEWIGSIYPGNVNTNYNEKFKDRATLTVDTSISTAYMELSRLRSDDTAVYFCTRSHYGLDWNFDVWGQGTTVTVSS
Chain of anti-CD28 Fab (VL, as listed by the source, chain 2 of 2): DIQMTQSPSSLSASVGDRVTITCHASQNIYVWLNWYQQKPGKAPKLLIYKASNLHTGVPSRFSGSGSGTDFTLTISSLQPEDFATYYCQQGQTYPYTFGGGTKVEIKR

T1 sequence (VH, as listed by the source, chain 1 of 2): as the sequence (VH, as listed by the source, chain 1 of 2) above
T1 sequence (VL, as listed by the source, chain 2 of 2): as the sequence (VL, as listed by the source, chain 2 of 2) above

Binder	Anti-CD28 Fab (SEQ ID NOs: 696, 697) signal [1]	Anti-CD28 Fab signal in the presence of CD28 [2]	Phage binding ELISA, Anti-PSMA Fab (SEQ ID NOs: 19, 20) signal [3]	Phage binding ELISA, Anti-PSMA Fab signal in the presence of PSMA [4]	IC50 (anti-CD28 Fab) [µM]
SCAAGASYAWPYCL (Clonal phage supernatant; also called Peptide-92; not shown: fused to the pIII filament protein of the bacteriophage) [Phage-471]	1.49	0.05			
YWSCFQIPFTCFYF (Clonal phage supernatant; also called Peptide-75; not shown: fused to the pIII filament protein of the bacteriophage) [Phage-454]	1.44	0.27			
WECLKYTEANACTY (Clonal phage supernatant; also called Peptide-76; not shown: fused to the pIII filament protein of the bacteriophage) [Phage-455]	1.55	0.07			
FMCLPQNPHPLCFK (Clonal phage supernatant; also called Peptide-77; not shown: fused to the pIII filament protein of the bacteriophage) [Phage-456]	0.84	0.06			
PDCQTILFKPWCVR (cysteine pairing not given here; also: displayed as fusion to phage pIII, linker and pIII sequence not given here, Clonal phage supernatant; also called Peptide-78; not shown: fused to the pIII filament protein of the bacteriophage) [Phage-457]	2.09	0.06			
ACDTYFAGMINECF (cysteine pairing not given here; also: displayed as fusion to phage pIII, linker and pIII sequence not given here, Clonal phage supernatant; also called Peptide-79; not shown: fused to the pIII filament protein of the bacteriophage) [Phage-458]	0.92	0.1			
GCQYPWAFDAMSCP (cysteine pairing not given here; also: displayed as fusion to phage pIII, linker and pIII sequence not given here, Clonal phage supernatant; also called Peptide-80; not shown: fused to the pIII filament protein of the bacteriophage) [Phage-459]	2.38	0.07			
WCWDYKLWVPTQCP (cysteine pairing not given here; also: displayed as fusion to phage pIII, linker and pIII sequence not given here, Clonal phage supernatant; also called Peptide-81; not shown: fused to the pIII filament protein of the bacteriophage) [Phage-460]	2.27	0.14			
WCWDYREWVPMTCP (cysteine pairing not given here; also: displayed as fusion to phage pIII, linker and pIII sequence not given here, Clonal phage supernatant; also called Peptide-82; not shown: fused to the pIII filament protein of the bacteriophage) [Phage-461]	2.3	0.08			
WCWYYREWVPMTCP (cysteine pairing not given here; also: displayed as fusion to phage pIII, linker and pIII sequence not given here, Clonal phage supernatant; also called Peptide-88; not shown: fused to the pIII filament protein of the bacteriophage) [Phage-467]	1.85	0.07			
ECHWSMWAVGHACF (cysteine pairing not given here; also: displayed as fusion to phage pIII, linker and pIII sequence not given here, Clonal phage supernatant; also called Peptide-83; not shown: fused to the pIII filament protein of the bacteriophage) [Phage-462]	1.77	0.07			
YCAGHSPINIGKCL (cysteine pairing not given here; also: displayed as fusion to phage pIII, linker and pIII sequence not given here, Clonal phage supernatant; also called Peptide-84; not shown: fused to the pIII filament protein of the bacteriophage) [Phage-463]	1.49	0.06			
WCWDYKLWVPMTCP (cysteine pairing not given here; also: displayed as fusion to phage pIII, linker and pIII sequence not given here, Clonal phage supernatant; also called Peptide-85; not shown: fused to the pIII filament protein of the bacteriophage) [Phage-464]	2.51	0.11			
DCWWMFESYPGRCI (cysteine pairing not given here; also: displayed as fusion to phage pIII, linker and pIII sequence not given here, Clonal phage supernatant; also called Peptide-86; not shown: fused to the pIII filament protein of the bacteriophage) [Phage-465]	1.65	0.07			
YCAGHAWQYINKCL (cysteine pairing not given here; also: displayed as fusion to phage pIII, linker and pIII sequence not given here, Clonal phage supernatant; also called Peptide-87; not shown: fused to the pIII filament protein of the bacteriophage) [Phage-466]	0.64	0.07			
YWYCSPSIVRCVLV (Clonal phage supernatant; also called Peptide-89; not shown: fused to the pIII filament protein of the bacteriophage) [Phage-468]	1.51	0.09			
WICDKSGSIMLCRA (Clonal phage supernatant; also called Peptide-91; not shown: fused to the pIII filament protein of the bacteriophage) [Phage-470]	0.91	0.06			
DCPWLSGFSRPLLC (Clonal phage supernatant; also called Peptide-93; not shown: fused to the pIII filament protein of the bacteriophage) [Phage-472]	1.27	0.07			
HCLWHESSGRVLCF [Phage-1742]			2.15	0.0678	
MEYCSFHRFTCVLW [Phage-1743]			1.93	0.116	

Binder	Anti-CD28 Fab (SEQ ID NOs: 696, 697) signal [1]	Anti-CD28 Fab signal in the presence of CD28 [2]	Phage binding ELISA, Anti-PSMA Fab (SEQ ID NOs: 19, 20) signal [3]	Phage binding ELISA, Anti-PSMA Fab signal in the presence of PSMA [4]	IC50 (anti-CD28 Fab) [µM]
SKLLCVPPWMCYHV [Phage-1744]			0.806	0.0794	
QLPCHYWGEWCPQA [Phage-1745]			1.39	0.0537	
FWECYSSFCRFVEG [Phage-1746]			1.46	0.139	
PLCGTEEVWWECRL [Phage-1747]			1.78	0.0826	
LTRCVPDWMCYRAV [Phage-1748]			1.17	0.0708	
YCWVDADMWLIFRC [Phage-1749]			1.01	0.275	
ILPCHWYTSDCPQH (also called Peptide-200) [Phage-1750]			1.63	0.117	
WCWVQDDRRHVVCG [Phage-1751]			1.19	0.0549	
MCQWDELNYWMDCD [Phage-1752]			1.65	0.0565	
QCVWDNFNYWMDCD [Phage-1753]			0.772	0.0667	
QCTWNEKTWWMECE [Phage-1754]			1.35	0.0568	
MCQWDKINYWMDCD [Phage-1755]			1.81	0.049	
QCVWDLTNYWMNCD [Phage-1756]			1.3	0.057	
DCHWNKATWWMDCE [Phage-1757]			1.18	0.0828	
TCSAGATYEWPRCL [Peptide-149]					2.66
TCSAGAHYPWPICL [Peptide-150]					4.76
SCSAGAAYYWPWCL [Peptide-151]					80.5
TCSAGATWAWPLCF [Peptide-152]					2.22
TCAAGATYLWPTCL [Peptide-153]					8.42
TCAAGAHYPWPACL [Peptide-154]					2.2
